Test results published in patent US12661385B2, “Modulation of mTORCI activity and autophagy via CIB2-RHEB interaction” (University of Maryland, Baltimore, priority 2018, dated 2026).

Experiments:
RPE-J cells = experiment: In vitro pulse-chase phagocytosis assay with opsin immunoblotting; format: cell-based, rat; conditions: CIB2 overexpression vs control, chase 6 h
Text: FIG. 12. CIB2 mutant mice have less autophagy/lysosomal proteins, and overexpression of CIB2. in vitro, is sufficient to boost levels of autophagy/lysosomal proteins and clearance of opsin. a. […] Pro-cathepsin D levels were quantified from non-saturated exposures. c. Representative immunoblots for indicated autophagy/lysosomal proteins from RPE-J cells transiently transfected with GFP or CIB2-IRES-GFP. Endogenous CIB2 is observable in long exposure immunoblot, while transiently overexpressed CIB2 is readily observable in short exposure immunoblot. d. Quantification for immunoblots shown in (c). n=5 (LAMP-1) or 4 (ATG5-ATG12) independent transfection experiments. e, Schematic of the pulse-chase phagocytosis assay (left panel)—also see Examples below. […]
Complementary to the findings of Cib2 mutant mice, over-expressing CIB2 in RPE-J cells increased LAMP-1 and ATG5-ATG12 complex proteins levels (FIG. 12c-d). […] To test this idea, we assessed LC3-II flux. LC3-I is a cytosolic protein which when lipidated with a phosphatidylethanolamine adduct (LC3-II form) localizes to the growing auto/phagosome membrane, and thus can be used as a reliable readout for the dynamic autophagic process (Valapala et al., Autophagy 10, 480-496 (2014); Kim et al., Noncanonical Autophagy Promotes the Visual Cycle. Cell 154, 365-376 (2013); Klionsky et al., Autophagy 12, 1-222 (2016)). […]

Raptor = Raptor (Homo sapiens, UniProt Q8N122); experiment: NanoSPD (nanoTRAP) interaction assay in COS-7 cells, Raptor; format: binding; set-up: HA (N); mCherry (N); conditions: filopodia tip co-accumulation
Sequence of Raptor (Q8N122 whole entry): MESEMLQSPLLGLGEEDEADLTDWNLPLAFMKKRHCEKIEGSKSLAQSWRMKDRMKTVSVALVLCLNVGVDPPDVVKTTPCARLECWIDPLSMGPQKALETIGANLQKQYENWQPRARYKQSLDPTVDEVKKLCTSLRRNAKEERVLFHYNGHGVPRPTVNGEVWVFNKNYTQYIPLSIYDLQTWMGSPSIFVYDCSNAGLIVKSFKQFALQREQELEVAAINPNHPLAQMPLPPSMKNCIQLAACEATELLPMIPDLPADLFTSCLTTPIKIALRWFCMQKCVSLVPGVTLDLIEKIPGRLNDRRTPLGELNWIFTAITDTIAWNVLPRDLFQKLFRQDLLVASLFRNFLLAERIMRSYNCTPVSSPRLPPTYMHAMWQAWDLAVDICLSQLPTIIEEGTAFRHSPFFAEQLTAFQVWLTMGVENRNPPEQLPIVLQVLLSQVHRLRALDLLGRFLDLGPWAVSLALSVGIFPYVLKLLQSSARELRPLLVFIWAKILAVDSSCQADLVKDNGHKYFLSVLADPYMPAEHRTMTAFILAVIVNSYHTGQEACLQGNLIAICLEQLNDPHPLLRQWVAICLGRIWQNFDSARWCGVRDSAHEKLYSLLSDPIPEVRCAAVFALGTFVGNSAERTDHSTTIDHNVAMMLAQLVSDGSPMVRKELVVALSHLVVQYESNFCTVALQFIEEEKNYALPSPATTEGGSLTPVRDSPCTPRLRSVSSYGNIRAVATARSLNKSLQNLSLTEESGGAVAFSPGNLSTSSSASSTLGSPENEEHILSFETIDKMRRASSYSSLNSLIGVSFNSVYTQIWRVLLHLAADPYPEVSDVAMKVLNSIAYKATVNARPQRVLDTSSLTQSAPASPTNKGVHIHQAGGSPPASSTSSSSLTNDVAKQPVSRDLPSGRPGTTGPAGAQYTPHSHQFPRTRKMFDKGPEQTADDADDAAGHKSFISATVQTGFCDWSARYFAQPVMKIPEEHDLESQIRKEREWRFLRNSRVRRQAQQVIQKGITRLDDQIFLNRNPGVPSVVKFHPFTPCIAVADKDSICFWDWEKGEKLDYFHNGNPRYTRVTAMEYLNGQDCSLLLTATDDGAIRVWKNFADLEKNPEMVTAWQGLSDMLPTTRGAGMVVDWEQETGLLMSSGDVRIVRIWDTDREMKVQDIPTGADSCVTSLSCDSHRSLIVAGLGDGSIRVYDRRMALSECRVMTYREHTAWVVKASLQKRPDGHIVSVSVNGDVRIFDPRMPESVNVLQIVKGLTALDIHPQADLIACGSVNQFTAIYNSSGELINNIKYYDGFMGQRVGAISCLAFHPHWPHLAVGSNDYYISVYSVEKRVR
Text: FIG. 14. […] Arrowheads indicate filopodia tip accumulation of hCIB2-eGFP, * indicates no accumulation of indicted constructs in the red channel. c. Representative confocal images (top panel) showing CIB2 (green) interaction with Rheb (red) and Raptor (red) using NanoTRAP assay. […] Arrowheads indicate filopodia tip accumulation of indicated constructs, * indicates no accumulation of indicted construct in the red or far-red channel. Scale bar: 10 μm. d. Quantification for nanoTRAP assay for images shown above. *** p<0.001 by one-way ANOVA. e, Co-IP experiments show interaction between Raptor and CIB2.
To reveal the molecular mechanism of CIB2-mediated mTORC1 modulation, we focused on the TSC-Rheb-mTORC1 axis. We performed an interaction screen of specific proteins including TSC1, TSC2, mTORC1-specific subunit Raptor, mTOR kinase, and Rheb. We used a recently-published quantitative interaction assay known as nanoscale pulldown 2.0 (NanoSPD), in which eGFP-nanobody tag fused to the myosin-HMM domain (nanoTRAP) preferentially migrates to the filopodia (Bird et al., Molecular Biology of the Cell 28, 463-475 (2017)). CIB2-eGFP (bait) migrated efficiently to filopodia in COS-7 cells only in the presence of the nanoTRAP. […] Many downstream and upstream targets of mTORC1 regulate its activity via binding to the mTORC1-specific subunit Raptor. […]

B1: CIB2: calcium and integrin binding protein 2, over-expressed in cells from plasmid constructs; SEQ ID NO:1 (human), SEQ ID NO:2 (mouse) (protein)
chain: MGNKQTIFTEEQLDNYQDCTFFNKKDILKLHARFYELAPNLVPMDYRKSPIVHVPMSLIIQMPELRENPFKERIVEAFSEDGEGNLTFNDFVDMFSVLCESAPRELKANYAFKIYDFNTDNFICKEDLEMTLARLTKSELEEDEVVLVCDKVIEEADLDGDGKLGFADFEDMIAKAPDFLSTFHIRI
modifications: left off: large carriers
Opsin 6 hr later (digestion phase) (RPE-J cells): less opsin | Interaction with Raptor (NanoSPD) (Raptor): interacts with CIB2
